According to patent US20250011363A1, “OPTIMIZED SHORTENED PEPTIDE THAT BINDS TO ACETYLCHOLINE RECEPTOR, AND USE THEREOF” (SKINMED CO., LTD., priority 2021, published 2025):

The substances below were run against acetylcholine receptor (Homo sapiens, UniProt P02708) (assay: SPR binding affinity (RU) of optimized 5mer/6mer/7mer peptides, Examples 6-7). Conditions: 6mer-2 Top sequence; SPR; peptides tested at 10 μM.
Procedure, shortened: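 600 peptides per series (5mer, 6mer-1, 6mer-2), made from high- or low-frequency amino acid combinations, are screened by SPR at 10 μM; binding is recorded in RU.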

Sequence of acetylcholine receptor (P02708 21-457): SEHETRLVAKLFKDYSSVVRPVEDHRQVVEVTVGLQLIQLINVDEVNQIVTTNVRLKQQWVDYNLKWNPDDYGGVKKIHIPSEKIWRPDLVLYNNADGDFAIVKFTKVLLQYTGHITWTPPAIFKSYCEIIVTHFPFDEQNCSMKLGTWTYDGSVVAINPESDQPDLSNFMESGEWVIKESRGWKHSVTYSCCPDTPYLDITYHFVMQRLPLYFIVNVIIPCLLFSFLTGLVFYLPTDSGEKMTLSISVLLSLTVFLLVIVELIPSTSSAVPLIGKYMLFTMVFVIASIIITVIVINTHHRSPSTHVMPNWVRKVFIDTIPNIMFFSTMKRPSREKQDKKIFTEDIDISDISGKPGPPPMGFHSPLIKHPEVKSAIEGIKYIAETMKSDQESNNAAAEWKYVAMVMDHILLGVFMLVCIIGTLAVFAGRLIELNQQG

Row | Substance | Binding affinity [Ru]
1 | 6mer-2-25 (KQVQKR) | 148
2 | 6mer-2-26 (RWRRKK) | 121
3 | 6mer-2-27 (KVIRRK) | 128
4 | 6mer-2-28 (KVLSRK) | 142
5 | 6mer-2-29 (RSQRKR) | 142
6 | 6mer-2-30 (RQFYKK) | 139
7 | 6mer-2-31 (KSYQRK) | 121
8 | 6mer-2-32 (RRLCRK) | 139
9 | 6mer-2-33 (RQFRKK) | 142
10 | 6mer-2-34 (KVFRRK) | 124
11 | 6mer-2-35 (RWISRK) | 148
12 | 6mer-2-36 (RRLQKK) | 131
13 | 6mer-2-37 (KLLYRK) | 148
14 | 6mer-2-38 (RSYYKR) | 136
15 | 6mer-2-39 (RWRYRK) | 137
16 | 6mer-2-40 (RRYRKK) | 153
17 | 6mer-2-41 (KQLCKR) | 142
18 | 6mer-2-42 (KLLSKR) | 126
19 | 6mer-2-43 (RVITKR) | 146
20 | 6mer-2-44 (KSVRRK) | 145
21 | 6mer-2-45 (RSLTKK) | 121
22 | 6mer-2-46 (KLYLKR) | 153
23 | 6mer-2-47 (KLQSRR) | 148
24 | 6mer-2-48 (RRFRKK) | 153

Row | Substance | Binding affinity [Ru]
25 | 6mer-2-49 (RLRCRK) | 154
26 | 6mer-2-50 (RSQSKR) | 125
27 | 6mer-2-51 (KQFLKK) | 139
28 | 6mer-2-52 (KRQRKK) | 136
29 | 6mer-2-53 (KSLSRR) | 125
30 | 6mer-2-54 (KGRRRR) | 124
31 | 6mer-2-55 (RLFYKK) | 125
32 | 6mer-2-56 (RSQLRR) | 149
33 | 6mer-2-57 (KQRCRR) | 139
34 | 6mer-2-58 (KRLQRK) | 122
35 | 6mer-2-59 (RVLSRK) | 123
36 | 6mer-2-60 (RRLSKK) | 148
37 | 6mer-2-61 (RGFQRK) | 148
38 | 6mer-2-62 (RLVTKR) | 147
39 | 6mer-2-63 (KSFRKR) | 121
40 | 6mer-2-64 (KSVSKK) | 136
41 | 6mer-2-65 (KGVCKR) | 148
42 | 6mer-2-66 (RVIRRR) | 123
43 | 6mer-2-67 (KLFCKK) | 124
44 | 6mer-2-68 (KGRRRK) | 142
45 | 6mer-2-69 (KWFLRK) | 139
46 | 6mer-2-70 (KRLLRK) | 126
47 | 6mer-2-71 (KQVYKR) | 141
48 | 6mer-2-72 (KRIQKK) | 144

Row | Substance | Binding affinity [Ru]
49 | 6mer-2-73 (RLYTKR) | 139
50 | 6mer-2-74 (RWIYKR) | 136
51 | 6mer-2-75 (KLYTRK) | 133
52 | 6mer-2-76 (RRQSRK) | 142
53 | 6mer-2-77 (KQQTRR) | 123
54 | 6mer-2-78 (KRYLKR) | 135
55 | 6mer-2-79 (RQLSKR) | 135
56 | 6mer-2-80 (RRQYKR) | 148
57 | 6mer-2-81 (RRVSRR) | 121
58 | 6mer-2-82 (RGVQKK) | 124
59 | 6mer-2-83 (KQYQRR) | 135
60 | 6mer-2-84 (KQRYKK) | 139
61 | 6mer-2-85 (KSQYKR) | 137
62 | 6mer-2-86 (KQFRRK) | 126
63 | 6mer-2-87 (RRLTKR) | 142
64 | 6mer-2-88 (KSFQRR) | 141
65 | 6mer-2-89 (KSRSKK) | 141
66 | 6mer-2-90 (KGRTKR) | 133
67 | 6mer-2-91 (KWIYKR) | 121
68 | 6mer-2-92 (KVVCKR) | 131
69 | 6mer-2-93 (RWQTRR) | 133
70 | 6mer-2-94 (RLYQRK) | 126
71 | 6mer-2-95 (RRIYRK) | 142
72 | 6mer-2-96 (KWRQRK) | 154

Row | Substance | Binding affinity [Ru]
73 | 6mer-2-97 (RQFYRK) | 154
74 | 6mer-2-98 (RRQQRR) | 148
75 | 6mer-2-99 (RQRSRR) | 151
76 | 6mer-2-100 (RRRCRR) | 142
77 | 6mer-2-101 (RLICRK) | 154
78 | 6mer-2-102 (KVYQKK) | 139
79 | 6mer-2-103 (RVVTKK) | 136
80 | 6mer-2-104 (RGVCRK) | 145
81 | 6mer-2-105 (RGFTRR) | 151
82 | 6mer-2-106 (RWVQRK) | 123
83 | 6mer-2-107 (RGVYRK) | 144
84 | 6mer-2-108 (RVVYKK) | 153
85 | 6mer-2-109 (RRVYRK) | 144
86 | 6mer-2-110 (KSQLKK) | 153
87 | 6mer-2-111 (KLIRRK) | 123
88 | 6mer-2-112 (RLQQKR) | 142
89 | 6mer-2-113 (KRYSRK) | 145
90 | 6mer-2-114 (KLQYRK) | 121
91 | 6mer-2-115 (KWQYRK) | 144
92 | 6mer-2-116 (KLQRKK) | 126
93 | 6mer-2-117 (KRYTRK) | 148
94 | 6mer-2-118 (KWFSRR) | 135
95 | 6mer-2-119 (RSISKK) | 139
96 | 6mer-2-120 (RRQCRK) | 146

Row | Substance | Binding affinity [Ru]
97 | 6mer-2-121 (KRVYRK) | 137
98 | 6mer-2-122 (RVITKK) | 125
99 | 6mer-2-123 (RQFTKR) | 146
100 | 6mer-2-124 (KWQLKR) | 126
101 | 6mer-2-125 (KVQLRR) | 142
102 | 6mer-2-126 (KWLYRR) | 148
103 | 6mer-2-127 (RLYLRK) | 136
104 | 6mer-2-128 (KSYYRR) | 147
105 | 6mer-2-129 (KSVLRK) | 139
106 | 6mer-2-130 (RGVCRR) | 122
107 | 6mer-2-131 (KQQTKR) | 148
108 | 6mer-2-132 (KLYCKK) | 139
109 | 6mer-2-133 (KRRLKK) | 145
110 | 6mer-2-134 (RLFQRK) | 148
111 | 6mer-2-135 (RWFYKK) | 124
112 | 6mer-2-137 (KVFCKK) | 135
113 | 6mer-2-138 (KQRRRK) | 153
114 | 6mer-2-139 (KLFRKK) | 149
115 | 6mer-2-140 (KGRLKK) | 142
116 | 6mer-2-141 (KWYQKK) | 154
117 | 6mer-2-142 (RWVLRR) | 121
118 | 6mer-2-143 (RRVCRR) | 128
119 | 6mer-2-144 (KSIRRK) | 133
120 | 6mer-2-145 (RQYYKK) | 128

Row | Substance | Binding affinity [Ru]
121 | 6mer-2-146 (KQLLKR) | 135
122 | 6mer-2-147 (RQYTKR) | 133
123 | 6mer-2-148 (KGQYKK) | 145
124 | 6mer-2-149 (KGQQRK) | 127
125 | 6mer-2-150 (KRILKR) | 136
126 | 6mer-2-151 (KQLRKR) | 142
127 | 6mer-2-152 (RQFYKR) | 139
128 | 6mer-2-153 (RVYSRR) | 124
129 | 6mer-2-154 (KRVTKR) | 148
130 | 6mer-2-155 (KGVYKK) | 139
131 | 6mer-2-156 (KGLQRR) | 127
132 | 6mer-2-157 (RSYRKK) | 153
133 | 6mer-2-158 (RSFLRR) | 145
134 | 6mer-2-159 (RQYYRK) | 127
135 | 6mer-2-160 (RVRRKK) | 121
136 | 6mer-2-161 (KWRRKK) | 154
137 | 6mer-2-162 (KVISKR) | 136
138 | 6mer-2-163 (KWFYRR) | 149
139 | 6mer-2-164 (KRQRRK) | 135
140 | 6mer-2-165 (KWFTRR) | 139
141 | 6mer-2-166 (RWLRKR) | 125
142 | 6mer-2-167 (KLFQKR) | 145
143 | 6mer-2-168 (RVFLKR) | 135
144 | 6mer-2-169 (KRQSRR) | 123

Row | Substance | Binding affinity [Ru]
145 | 6mer-2-170 (RQYQKK) | 128
146 | 6mer-2-171 (RQQTRR) | 139
147 | 6mer-2-172 (KVIRKK) | 128
148 | 6mer-2-173 (RQQCKK) | 127
149 | 6mer-2-174 (KLLRKR) | 142
150 | 6mer-2-175 (KVYLRK) | 137
151 | 6mer-2-176 (RWIYRR) | 144
152 | 6mer-2-177 (RSVTKK) | 136
153 | 6mer-2-178 (KWLLRR) | 133
154 | 6mer-2-179 (RRVYRR) | 121
155 | 6mer-2-180 (RLRLKR) | 142
156 | 6mer-2-181 (RWQQKK) | 139
157 | 6mer-2-182 (KLFYKK) | 139
158 | 6mer-2-183 (RLQLRR) | 154
159 | 6mer-2-184 (KWVSRR) | 136
160 | 6mer-2-185 (RGYQKR) | 137
161 | 6mer-2-186 (KQICRK) | 127
162 | 6mer-2-187 (KRRRRK) | 145
